Test: soluble on expression in E. coli; label from the status in PepcDB or PDB records

Row | Sequence | soluble on expression in E. coli
1 | MLVGHARKDITPTEPFYLLGYKTELRNQPAKGIHDHIYINALLFYDDKGNECFLATGDLLELEDIVAADIRQKISRKYGIAMDHVIIGVTHDHHSVRDYHRTWEFGKFSQTYYDFFVDSFVQAFEDCRETLTDVTVQYGQQEIFGFYSNRNHANKPSDNAVSVIKFIADGHAVAGIVNMAVHSTVLGPDNQYLTADLAGNTCTKLAKEWGFFPLMLIGCAADSSNRYERQGRDFAELERASSGLAVAISKIQTPKRLCLGKIQTLTLSHEVVNDKPIYDRKLRTMINDLRSGVIKAIGSQSVEAIVEKCEDQLNKPQFHDLLSLQLLDIGELRLFVFPGELASAGAKKLTSFDRLEHHHHHH | not soluble
2 | MGSDKIHHHHHHMKALALFSGGLDSMLAMKLITAQGIEVKALNINIGFGSTSDKSEIMKKRAAMVGADFEMIDVRNSYLQEVLFNPQYGYGKHFNPCIDCHAFMFKTALAMLKEENASFIITGEVLGQRPMSQRSDAMAKVKKLALDEEDLILRPMCAKNLPLTKPEREGWVDREKLEGIIGRSRKRQLELAAKFGLEDFESPGGGCLLTLDSFAKKIRDFIEFDKDMQVNDAQLLKYGRHLRLPNGAKMIIGRNELENTLLKGLKTPKYEAIEIGDLIGAYSLVDEKISEKDLELALKIALTYTKHEVGKSYELKFKNQAYTSIAFENKADINQFFIS | not soluble
3 | MGSDKIHHHHHHMNLATSERAQLATLLLEKGPNFPTLCGDWNTQELAAHLLIRESRPWIAAGMFLPGGSRIVADAMRKITQQPFEHVVAQWMKGPKWGYLGRYLDSVANRIEHFVHHEDVRRGETTVGQWQNLDLLPCNAKPRVLSERHSGELYDAMRWVAPLLLRRSACPVVIEPIGFPRLVVADAGVVSTRGDCVVHVRGDIGEVVLWILGRNQVDLFVDGPTHLLKKSSL | not soluble
4 | MSLTLQQKELFQKSPLLLENGETLSPVLVGYETYGTLSASRDNCILLEHALTGTAHAAKHFEDDAPGWWDDYIGPGKTIDTDKYFLVCTNVFGGCSGTTGPSSINPKTGEPFRLQFPGFSIKDIIKVQRELLEQLGVTRIVSVIGGSMGGMQATEWAIDYADITDSIINIASPLAAGPDAIGYNLIMRMAILNDPDFNGGNYVGQPEGGLATARMVGMMTYRTSELFSKRFERFTVAESSPAAFSKEHFQIESYLQYQGDTFVERFDANSYLYLTKAIDLFDVTAPAKDDLPAFSKIKIPYLLIGITTDQLFRIHDLRRGYELLKEWDVPVTYHEVASEYGHDAFLVEKEVPKFEPLIRSFLSNLPVKSIEGHHHHHH | soluble
5 | EDPFQPEIKVRCVCGNSLETDSMIQVIWDELTAFIPCEDPRCHVWQHVGCVILPDKPMDGNPPLPESFYCEICRLT | soluble
6 | TFFTATDGNHGRGVAWTANKLGQKSVVLMPKGSSEFRLNKIKGEGADASITDLNYDDAVRLANDYAEADDHGVMVQDTAWDGYEEIPAWIMQGYGTMAQEAIEQLKEYGVDRPTHVFVQAGVGSLAGAVQGYVASIYDECPITVVVEADEADCYYKSAEAGDGKPRFVGGDMPTIMAGLACGEPNTIGFEVLKNHAAAFVSAPDWVSAKGMRTLGNPLNGDEKVISGESGAVTTGLLVAAMEREDLADLRKDLKLDENSRILLISTEGDT | not soluble
7 | MAKAVGIDLGTTNSVIAVLEGGKPVVLENAEGERVTPSVVAFRDGETLVGRMAKRQAVLNPEGTIFEIKRFIGRRFEEVQEEAKRVPYKVVPGPDGGVRVEVKGKLYTPEEISAMILRKLVEDASKKLGEKITKAVITVPAYFNNAQREATANAGRIAGLEVLRIINEPTAAALAYGLDKKGNETVLVFDLGGGTFDVTILEIGEGVFEVKATSGDTHLGGSDMDHAIVNWLAEEFKKEHGVDLKADRQALQRLIEAAEKAKIELSSTLETTISLPFIALDPASKTPLHLEKKLTRAKFEELIQPLLKRLRGPVEQALKDAGLTPAQIDEVILVGGATRVPAVQQVVRELLGKEPNRSVNPDEVVAMGAAIQAGVLMGEVRDVVLLDVTPLSLGVETKGGVMTVLIPRNTTIPTRKCEIFTTAEHNQTAVKSIVFQGKRPMAQDNKSLGRFRLEGIPPMPAGVPQIEVCFDIDANGILHVTAKERSTGREASITIQNTTTLSEEEIQRIIEEAKRHAEEDRRRREHAELKNALDSARVQAERVLQERQGAPEARARLEAAIGKAKELVERDAPDPELKAATEELLKAVEEYEKGAQAASGKGPDDVIDADYKPAD | soluble
8 | MDILFRIRGGFDLAFQLAPPKEMFIKNALRQVLSDLTTKLSSDALVLRVCNSSVYLWPNSDANTGELTDSSACKNVVRFIQFDQEEDTKRKFIKKKDKKLTDTQQIVNIDLMLEISTPLGAVTPILERENEEHHYINMSLPIDAVVSVAPEESWGKVRKLLVDAILRQLVDVEKCILRYMKGTSIVVPEPLHFQLPGKKNLVTVLYPSGIPDDQLQAYRKELHDLFNLPHDRPYFKRINAYHFPDELYKDGYIRNPHTYLSPPNIEGSMICVVQGTYAYHHYMQDRIDDNGWGCAYRSLQTICSWFRHQGYTERSIPTHREIQQALVDAGDKPATFVGSRQWIGSIEVQMVLNQLIGVTSKILFVNQGSEMASQGRELANHFQNVGTPVMVGGGVLAHTILGVAWNETTGQIKFLILDPHYTGAEDLQVMLEKGWCGWKSPDFWNKDAYYNLCLPQRPNAL | soluble
9 | MGSDKIHHHHHHMLMNIGKVDNIKIYTLAEDYAGYNSPFWSQHGLSFLIEVESNGIKKRILFDTATYAEPILFNMKLLNINPKSIDMIILSHNHFDHTGGLFGIMKEINKEIPIFAHPNIFKVSFATEPEFMLAGTLNKTLKEDIEKLGGRWVLSRDPIRLMPGIFTLGEIEDEEKINFEKKPTIGLYKLENGRVVLDNVEDEIGLAIVTEKGLIIVSGCSHPGIVSMVKKSIKISGINKVYAVIGGFHLIDADNERIVSTIKALKKLGVKKICTGHCTGFKAENMFMEEFKEDFERLHAGKIIKF | not soluble
10 | MCNLTIHNIENYENDPQLRLIPWILWENLFQHFISANELSLMTLSYKEAIHIFLPGTKNMEQVRQLLCLYYAHYNRNAKQLWSDAHKKGIKSEVICFVAAITGCSSALDTLCLLLTSDEIVKVIQAENYQAFRLAAENGHLHVLNRLCELAPTEIMAMIQAENYHAFRLAAENGHLHVLNRLCELAPTEATAMIQAENYYAFRWAAVGRGHHNVINFLLDCPVMLAYAEIHEFEYGEKYVNPFIARHVNRLKEMHDAFKLSNPDGVFDLVTKSECLQGFYMLRNLIRRNDEVLLDDIRFLLSIPGIKALAPTATIPGDANELLRLALRLGNQGACALLLSIPSVLALTKANNYYINETGGRLDLRAVALEHHHHHH | soluble
11 | MSNGAWTDQENDLIVADYFAMLADDVSGRPYNKAEHRRGLLPLLNDRSEGSVEFKHQNISAVLKGLGEDWIPGYKPAFNFQMTLVDAVARWLALNPAWLGRHSGTRAPTGLAEVRPIWIGPPPTLSNQPPPQELEQMLHIARKFDVAARDERNRALGRAGEERVLAHERATLKSAGRDDLARNVRWVSEEDGDGAGYDIASFALDGSPRLIEVKTTNGWERTPFHISRNELAVAEARRSEWSLFRLWNFAREPKAFELHPPLGAHVSLTATTFQASLHLEHHHHHH | not soluble
12 | SNAMNHSRESYDRLARELGGYRHPWARVLSGPDPELTFDLWLSRLLTPQTRVLEAGCGHGPDAARFGPQAARWAAYDFSPELLKLARANAPHADVYEWNGKGELPAGLGAPFGLIVSRRGPTSVILRLPELAAPDAHFLYVGPRLNVPEVPERLAAVGWDIVAEDHVSVLAHAPTWEDWQMRGEFMGKLARRADWDAEATVRGMPYREERHLVLARQLGVARKLGA | soluble
13 | MFTRQAGHFVEGSKAGRSRGRLCLSQALRVAVRGAFVSLWFAAGAGDRERNKGDKGAQTGAGLSQEAEDVDVSRARRVTDAPQGTLCGTGNRNSGSQSARAVGVAHLGEAFRVGVEQAISSCPEEVHGRHGLSMEIMWAQMDVALRSPGRGLLAGAGALCMTLAESSCPDYERGRRACLTLHRHPTPHCSTWGLPLRVAGSWLTVVTVEALGRWRMGVRRTGQVGPTMHPPPVSGASPLLLHHLLLLLLIIILTC | not soluble
14 | MTLDVPVNQGHVPPGSVACCLVGVTAVADGIAGHSLSNFGALPPEINSGRMYSGPGSGPLMAAAAAWDGLAAELSSAATGYGAAISELTNMRWWSGPASDSMVAAVLPFVGWLSTTATLAEQAAMQARAAAAAFEAAFAMTVPPPAIAANRTLLMTLVDTNWFGQNTPAIATTESQYAEMWAQDAAAMYGYASAAAPATVLTPFAPPPQTTNATGLVGHATAVAALRGQHSWAAAIPWSDIQKYWMMFLGALATAEGFIYDSGGLTLNALQFVGGMLWSTALAEAGAAEAAAGAGGAAGWSAWSQLGAGPVAASATLAAKIGPMSVPPGWSAPPATPQAQTVARSIPGIRSAAEAAETSVLLRGAPTPGRSRAAHMGRRYGRRLTVMADRPNVG | not soluble
15 | MLAVGIVGLPNVGKSTLFNALTRANALAANYPFATIDKNVGVVPLEDERLYALQRTFAKGERVPPVVPTHVEFVDIAGLVKGAHKGEGLGNQFLAHIREVAAIAHVLRCFPDPDVVHVMGRVDPLEDAEVVETELLLADLATLERRLERLRKEARADRERLPLLEAAEGLYVHLQEGKPARTFPPSEAVARFLKETPLLTAKPVIYVANVAEEDLPDGRGNPQVEAVRRKALEEGAEVVVVSARLEAELAELSGEEARELLAAYGLQESGLQRLARAGYRALDLLTFFTAGEKEVRAWTVRRGTKAPRAAGEIHSDMERGFIRAEVIPWDKLVEAGGWARAKERGWVRLEGKDYEVQDGDVIYVLFNA | soluble
16 | MGSDKIHHHHHHMYNVMNCIIVDDEPLAREAMKLLIEEAECLQLVGSFNSAATASDFMEQHVVDLVFLDIQMPGITGIEFARTISKRTLVIFTTAYTEYALDSYEVDAIDYLIKPVEAERFQKAVEKAQSYHSLLLQEEKEAIETIVAAEYFFVKAERRYFKVNFSDILFVEGLKDYVILQLGEQRIITRMSLKAVFDLLPKDSFLRVNKSYIVNTAHIDSFDNNDIFIKSYEIAIGNSYRDDFFEGFVMKQQRW | not soluble
17 | MKRGKQTCKILKDIRRQIAEANDIEFITSECQYQGDCLGTCPKCEAEVRYLEQQLERKRMAGKAITILGISAGLVAMAPMTSCSSSPNKGTNQETISDSTNASVMFGEICPTPVEDTIPMVEKDTVNKQELPELPQEMGLIEITPISGDIITVKDSLSEKDSLTDVLEVAAVMPEFPGGARELMKFISANIRYPSMSQGGVCQGRAIVQFIVDKEGNIVQPKVVRGVDPYLDKEALRVVGLMPKWKPGELDDGTKVAVRFTIPVMFRLQ | not soluble
18 | MAHHHHHHMGTLEAQTQGPGSMTAASSSAPTLGIIRLEHAKGLDLPAYETAGSAGMDLRAAVAEDRQIVLLPGRRTLVPTGLILEIPQGYEVQIRPRSGLAFKNGITCLNTPGTIDSDYRGEVKVLLINLGDDDFRIERGMRIAQAVFAPVIQPKIEERAKISETARGAGGFGSTGTA | soluble
19 | MYRMDKYTIGLIRVITLEDKEILNLHGRIIESAFPELKVVSRCIEDQPKGIYNEETEREAEPKIIRLAKEFEREGVDAIIISCAADPAVEKVRKLLSIPVIGAGSSVSALALAYGRRVGVLNLTEETPKVIRSILGNNLIAEDHPSGVSNTLDLLTDWGRREVINAAKRLKEKGVEVIALGCTGMSTIGIAPVLEEEVGIPVIDPVIASGAVALHALKRREVKRFEGR | soluble
20 | SAASEHRCVGCGFRVKSLFIQYSPGNIRLMKCGNCKEVADEYIECERMIIFIDLILHRPKVYRHVLYNAINPATVNIQHLLWKLVFAYLLLDCYRSLLLRKSDEESSFSDSPVLLSIKVRSFLFNGLN | soluble
21 | KIIEEFIDSLFSGVVETSETKQLKADLLANAEDRYEDLLSQGKSENEAIGTIISEFGTIDELMEELNLENKQVDEPNDS | not soluble
